Assays:
[1] = target: gp130 on human cord blood Lin-CD34+ cells (human (endogenous in cord blood Lin-CD34+ cells)) (UniProt P40189)
[2] = target: gp130 on Ba/F3-gp130 cells (UniProt P40189)
IL-6R (Homo sapiens) = IL-6R (Homo sapiens) (UniProt P08887); details: cited from earlier work
IL-6R (Homo sapiens), sequence (P08887 20-355): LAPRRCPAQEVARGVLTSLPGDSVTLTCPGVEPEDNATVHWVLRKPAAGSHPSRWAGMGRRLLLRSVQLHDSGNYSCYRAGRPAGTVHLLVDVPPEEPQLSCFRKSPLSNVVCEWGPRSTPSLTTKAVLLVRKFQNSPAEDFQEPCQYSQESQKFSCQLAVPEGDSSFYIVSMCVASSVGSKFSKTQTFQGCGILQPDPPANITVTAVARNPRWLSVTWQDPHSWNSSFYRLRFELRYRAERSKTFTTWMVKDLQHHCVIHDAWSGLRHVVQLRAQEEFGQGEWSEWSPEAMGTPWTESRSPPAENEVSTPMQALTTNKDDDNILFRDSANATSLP

gp130 on Ba/F3-gp130 cells, sequence (P40189 23-918): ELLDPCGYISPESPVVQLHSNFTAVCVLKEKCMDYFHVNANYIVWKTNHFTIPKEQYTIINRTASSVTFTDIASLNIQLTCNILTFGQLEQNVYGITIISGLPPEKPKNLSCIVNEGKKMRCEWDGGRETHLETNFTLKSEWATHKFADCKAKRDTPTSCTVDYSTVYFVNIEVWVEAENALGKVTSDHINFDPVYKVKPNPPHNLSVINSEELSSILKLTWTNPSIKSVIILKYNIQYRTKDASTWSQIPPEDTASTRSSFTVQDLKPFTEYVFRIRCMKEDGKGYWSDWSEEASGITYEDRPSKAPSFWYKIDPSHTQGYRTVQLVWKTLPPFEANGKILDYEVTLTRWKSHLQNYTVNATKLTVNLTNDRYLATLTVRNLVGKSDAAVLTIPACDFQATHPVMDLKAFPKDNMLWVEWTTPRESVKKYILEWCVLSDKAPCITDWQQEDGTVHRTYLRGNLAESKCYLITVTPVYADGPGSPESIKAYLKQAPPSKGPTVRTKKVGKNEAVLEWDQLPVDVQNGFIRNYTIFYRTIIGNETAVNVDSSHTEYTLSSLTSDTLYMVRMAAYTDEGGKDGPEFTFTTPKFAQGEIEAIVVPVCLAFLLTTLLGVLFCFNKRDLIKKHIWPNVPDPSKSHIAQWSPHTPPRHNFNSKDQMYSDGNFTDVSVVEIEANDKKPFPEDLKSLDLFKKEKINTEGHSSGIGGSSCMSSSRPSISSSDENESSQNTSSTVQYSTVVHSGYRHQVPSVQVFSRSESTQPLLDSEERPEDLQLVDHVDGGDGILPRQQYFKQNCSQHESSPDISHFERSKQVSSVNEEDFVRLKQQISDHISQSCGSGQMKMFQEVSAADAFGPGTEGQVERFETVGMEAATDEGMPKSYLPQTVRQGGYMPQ
gp130 on human cord blood Lin-CD34+ cells (human (endogenous in cord blood Lin-CD34+ cells)), sequence (P40189 23-918): as above
IL-6, sequence (P05231 30-212): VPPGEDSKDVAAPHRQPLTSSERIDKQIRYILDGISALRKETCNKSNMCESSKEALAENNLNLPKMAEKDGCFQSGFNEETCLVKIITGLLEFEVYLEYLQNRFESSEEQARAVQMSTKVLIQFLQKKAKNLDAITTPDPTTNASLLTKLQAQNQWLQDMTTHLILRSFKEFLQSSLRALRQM

CD235a+ (erythroid) cells in Lin-CD34+ liquid culture with 50 ng/ml H11, day 14, flow cytometry (27% with Hyper-IL-6, 20% in control culture) [1]	proliferation of Ba/F3-gp130 cells (MTT, 72 h): dose of H11 for half-maximum proliferation [2]	Substance	Kd (IL-6R (Homo sapiens))
39%	800 to 900 pM	Hyper IL-11 (H11) (from UniProt Q14626 23-365; P20809 19-199)	–
–	–	IL-6 (from UniProt P05231)	1 nM

— article PMC3382428
